The subject of this data set is MS2 coat protein. Description: apparent KD of MS2 coat protein; designed switch direction (-1 OFF switch, 1 ON switch): -1; higher = weaker reporter binding. The method, boiled down: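 On Illumina chips, designed RNA switches with common flanks were made by stalled E. coli RNA polymerase. Titrations with SNAP-549-labelled MS2 coat protein, doubling from 0.7 or 1.5 nM to 3 µM, were done with no input, with 200 uM small-molecule ligand, or with an oligonucleotide input. Apparent KD is the median per design over clusters, from curve fits of normalised cluster fluorescence.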

The mark [1] stands for this setting: Eterna round: R95, input ligand: FMN 200 uM.
Where [2] appears, read: Eterna round: R95, input ligand: microRNA oligo, concentration not stated.
[3] abbreviates: Eterna round: R95, input ligand: none.
[4] abbreviates: input ligand: microRNA oligo, concentration not stated.

On to “AGUACUAACACGUCAGUGUUAGUACAAUAAGCUUGUGAAACAUGAGGAUCACCCAUGUCCUCAUAAGCUCGUCUUAU [salish99_TOv2_r3_062] (puzzle: Sensor v3, turn-off variant 2)”, for which the “apparent KD of MS2 coat protein” value reads like this: under setting [1], 17.3 nM; under setting [2], 602 nM; under setting [3], 16.1 nM.

As for “AGUACUAUCACGAAAGUGAUAGUACAAAAUAGCAAGUGAACAUGAGGAUCACCCAUGUCCUCAUUUGCUCGUCUUAU [Sensor 3 - 19] (puzzle: Sensor v3, turn-off variant 2)”, the “apparent KD of MS2 coat protein” value reads like this: under setting [1], 15.1 nM; under setting [2], 426 nM; under setting [3], 14.2 nM.

For the sequence “AGUACUGACACGUUGGUGUUAGUACAAUAAGCUUGUGACACAUGAGGAUCACCCAUGUCCUCAUAAGCUCGUCUUAU [salish99_TOv2_r2_094] (Eterna round: R96, puzzle: Sensor v3, turn-off variant 2)”, the “apparent KD of MS2 coat protein” value is, setting by setting: (input ligand: FMN 200 uM) 22.9 nM; under setting [4], 468 nM; (input ligand: none) 25.4 nM.

Turning to “AGUACUGACACGUUGGUGUUAGUACAAUAAGCUUGUGACACAUGAGGAUCACCCAUGUCCUCAUAAGCUCGUCUUAU [salish99_TOv2_r2_094] (puzzle: Sensor v3, turn-off variant 2)”, the “apparent KD of MS2 coat protein” value runs as follows: under setting [1], 22 nM; under setting [2], 1080 nM; under setting [3], 20.7 nM.

For “AGUAGAUCUACGCUUGCGUGGAUCUGCAAUGCAAGUGUUACAUGAGGAUCACCCAUGUCCUCAUUUGCUCGUCUUAG [JL turnoff v2 99.05] (puzzle: Sensor v3, turn-off variant 2)”, the “apparent KD of MS2 coat protein” value reads like this: under setting [1], 41.4 nM; under setting [2], 108 nM; under setting [3], 45.4 nM.

Turning to “AGUAUGCGAGGAUAUACAUGAGGAUCACCCAUGUGAGAGAUAAAAGUGAGAAAGACAAGUAGAAGGCGCGUACA [JL Lego Mod 23] (Eterna round: R96, puzzle: Exclusion 3)”, the “apparent KD of MS2 coat protein” value by setting is: (input ligand: FMN 200 uM) 413 nM; under setting [4], 41.9 nM; (input ligand: none) 81.1 nM.

On to “AGUCAGACGGUAGGAUAUCCAUAUCGAGUGACCCUUUCAUAACAUGAGGAUCACCCAUGUCGGUGGGAGAAGGGCCGUACGGCG [JL ViennaUCT Atra mod 5] (Eterna round: R96, puzzle: Exclusion NG 2)”, for which the “apparent KD of MS2 coat protein” value (input ligand: FMN 200 uM) came out at 226 nM, the “apparent KD of MS2 coat protein” value under setting [4] came out at 93.3 nM and the “apparent KD of MS2 coat protein” value (input ligand: none) was 129 nM.

In the case of “AGUCAGGCGGUAGGAUAUCCAAACCGAGUGACCCUCUCAUAACAUGAGGAUCACCCAUGUCGGUGGGAGAAGGGCCGUACGGCG [Atra] (Eterna round: R96, puzzle: Exclusion NG 2)”, the “apparent KD of MS2 coat protein” value reads like this: (input ligand: FMN 200 uM) 206 nM; under setting [4], 90 nM; (input ligand: none) 117 nM.

With “AGUCAGUCAGGAUAUCAAAUCCGUGGACCUUACGAUGCGGCUGAGAAGGGACAUGAGGAUCACCCAUGUUGGGU [Eternabot (L2) Solution 27] (Eterna round: R97, puzzle: Exclusion 4)”, the “apparent KD of MS2 coat protein” value reads like this: (input ligand: FMN 200 uM) 60.8 nM; (input ligand: none) 66.5 nM.

Regarding “AGUCCUGCGGUGAGGAUAUAUUUGUAGCCAUUCAGGUAGAAGGCACUUGAGGAUCACCCAAGUAAAGAACCAAC [Releat] (Eterna round: R97, puzzle: Brourd's mod of Exclusion 4)”, the “apparent KD of MS2 coat protein” value came to 39 nM (input ligand: FMN 200 uM) and 28 nM (input ligand: none).

As for “AGUCGGCGAGGAUAUACAUGAGGAUCACCCAUGUGGAAUCCUAGACCUGUAGGUCCAUGUAGAAGGCGCUGACA [Exclusion 3 - Was a mod at one point v.2] (puzzle: Exclusion 3)”, the “apparent KD of MS2 coat protein” value is, setting by setting: under setting [1], 32.2 nM; under setting [2], 212 nM; under setting [3], 192 nM.

Take “AGUCGUAGACAGGAUAUGCGGCUAAUAAAUAAUGCAGAAGGGUCUACUUGAGGAUCACCCAAGUGGGCGGUCUG [jl-ex6-4.23 ViennaUCT mod] (Eterna round: R97, puzzle: Exclusion 6)”: the “apparent KD of MS2 coat protein” value came to 70.3 nM (input ligand: FMN 200 uM) and 17.3 nM (input ligand: none).

Consider “AGUGACUUAGGAUAUUGGCAUGAAGACAUGAGGAUCACCCAUGUCCUCGUAGUCAUUCGCCGAGAAGGGAGAGAUU [Eternabot (L2) Solution 50] (Eterna round: R97, puzzle: Exclusion 5)”, for which the “apparent KD of MS2 coat protein” value reads like this: (input ligand: FMN 200 uM) 126 nM; (input ligand: none) 84.4 nM.

For the sequence “AGUGGGCUAGGAUAUCGAUGAACUCACAUGAGGAUCACCCAUGUGUCUUCGGUGGGCUCACGAGAAGGAGUAAGUU [Teanislaa] (puzzle: Exclusion 5)”, the “apparent KD of MS2 coat protein” value under setting [2] came out at 15.7 nM.

Consider “AGUGGGUCAGGAUAUUCUAUUAAUUACAUGAGGAUCACCCAUGUGAAUGGACAAGGGUGUGAAGAAGGGACUUGCG [Omei Ex5 A17d] (Eterna round: R97, puzzle: Exclusion 5)”, for which the “apparent KD of MS2 coat protein” value is, setting by setting: (input ligand: FMN 200 uM) 324 nM; (input ligand: none) 546 nM.

Regarding “AGUGUGAGGCAGGAUAUGCUAUAUGUACGUAAUGCAGAAGGGUCUACAUGAGGAUCACCCAUGUGUGCGGUUGA [Ex6 #8] (Eterna round: R97, puzzle: Exclusion 6)”, the “apparent KD of MS2 coat protein” value (input ligand: FMN 200 uM) turned out to be 309 nM and the “apparent KD of MS2 coat protein” value (input ligand: none) is 289 nM.

Turning to “AGUGUGUCAGGAUAUUCUAUUAAUUACAUGAGGAUCACCCAUGUGAAUGGACAAGGGUGUGAAGAAGGGACGUGCG [Omei Ex5 A17e] (Eterna round: R97, puzzle: Exclusion 5)”, the “apparent KD of MS2 coat protein” value (input ligand: FMN 200 uM) was 211 nM and the “apparent KD of MS2 coat protein” value (input ligand: none) worked out at 381 nM.

For the sequence “AGUGUGUGGCAGGAUAUUCUAAUCGUGAGUCGGGAAGAAGGGUCUACAUGAGGAUCACCCAUGUGAGCGGUUGA [Ex6 #45] (Eterna round: R97, puzzle: Exclusion 6)”, the “apparent KD of MS2 coat protein” value by setting is: (input ligand: FMN 200 uM) 219 nM; (input ligand: none) 245 nM.

In the case of “AGUUCGCAGAGAGGAUAUAUAGGGUUACGGCCUAUAGAAGGUUCACGUUAGCCGCAACAUGAGGAUCACCCAUGUGCUCCGCGA [Eternabot solution 35] (Eterna round: R96, puzzle: Exclusion NG 1)”, the “apparent KD of MS2 coat protein” value (input ligand: FMN 200 uM) was found to be 27.5 nM, the “apparent KD of MS2 coat protein” value under setting [4] is 20.9 nM and the “apparent KD of MS2 coat protein” value (input ligand: none) is 29.6 nM.

Turning to “AGUUGGCGAGGAUAUACAUGAGGAUCACCCAUGUGAGAGAAAAAAGUGAGGAAGAAAAGUAGAAGGCGCUGACC [salish99_ex3_r3_041] (puzzle: Exclusion 3)”, the “apparent KD of MS2 coat protein” value under setting [1] came out at 245 nM, the “apparent KD of MS2 coat protein” value under setting [2] was 49.8 nM and the “apparent KD of MS2 coat protein” value under setting [3] was 81.8 nM.

Regarding “AGUUGGCGAGGAUAUACAUGAGGAUCACCCAUGUGAGAGAUACUAGUGAGGUCGAUUAGUAGAAGGCGCUGACG [Mat - Exclusion 3 - Mod of JL D76] (puzzle: Exclusion 3)”, the “apparent KD of MS2 coat protein” value by setting is: under setting [1], 1170 nM; under setting [2], 25.3 nM; under setting [3], 49.3 nM.

As for “AGUUGGGCAGGAUAUACAUGAGGAUCACCCAUGUGAGAAAUACUAGUGAGGUCGAUUAGUAGAAGGGCCUGACA [Mat - Exclusion 3 - Eli Mod - D30] (Eterna round: R97, puzzle: Exclusion 3)”, the “apparent KD of MS2 coat protein” value stood at 244 nM (input ligand: FMN 200 uM) and 31.2 nM (input ligand: none).

As for “AUAAAACAUGAGGAUCACCCAUGUCAGGAUAUACGACUCCAACCAAACUGCUUGGACCGUAGAAGGGACAAGGG [Exclusion 1 (MOD2 Esqu)] (Eterna round: R97, puzzle: Exclusion 1)”, the “apparent KD of MS2 coat protein” value is, setting by setting: (input ligand: FMN 200 uM) 140 nM; (input ligand: none) 277 nM.

Turning to “AUAAAGCAAGCAUGGUCCCACAUGAGGAUCACCCAUGUGUUCGUCUUAUAGGCUGCUGAGGCUUUUGCCUCGGUGGC [LRO Sensor-off var1-07 loose mod of D91 from Mat747] (Eterna round: R97, puzzle: Sensor, turn-off variant 1)”, the “apparent KD of MS2 coat protein” value reads like this: (input ligand: FMN 200 uM) 155 nM; (input ligand: none) 179 nM.

Take “AUAAAUCAUGUAGGAUAUGCGUGGCAAAGCUAUGCAGAAGGACAUGAGGAUCACCCAUGUGCUUCCGUCUGAGAACAGACGGUA [Mat - Exclusion NG 1 - Mod of JL - D24] (Eterna round: R96, puzzle: Exclusion NG 1)”: the “apparent KD of MS2 coat protein” value came to 130 nM (input ligand: FMN 200 uM), 61.6 nM under setting [4] and 82.3 nM (input ligand: none).

For “AUAACAAGCUUUUUGUUCGUAGAACAUGACGCUCGAGUCACAUGAGGAUCACCCAUGUCAUCCAGAUUGAUAGUUGA [JR_SV3TOV2_Sub059] (puzzle: Sensor v3, turn-off variant 2)”, the “apparent KD of MS2 coat protein” value reads like this: under setting [1], 35.5 nM; under setting [2], 47.3 nM; under setting [3], 44.3 nM.

In the case of “AUAAGGCUAGGAUAUGCAUGUGGCACAGCUCAGAAAAUAAGACAUGAGGAUCACCCAUGUAGAAGGAGCAUGCC [EX2 A.30] (Eterna round: R97, puzzle: Exclusion 2)”, the “apparent KD of MS2 coat protein” value is 19.4 nM (input ligand: FMN 200 uM) and 16.2 nM (input ligand: none).

“AUAAUAAAGGAGGAUAUCGUUACGGAAACGUAACGAGAAGGUCUAACAUGAGGAUCACCCAUGUUCCUCAAAUA [Mat - Exclusion 6 - Eli Mod - D53] (puzzle: Exclusion 6)”: the “apparent KD of MS2 coat protein” value amounted to 49.9 nM under setting [1], 36.4 nM under setting [2] and 37.4 nM under setting [3].

Take “AUAAUGUAAGGAUAUCAGUCGUAAUUUAAUUUAAUAUCGACUGAGAAGGUACAUGAGGAUCACCCAUGUGGUCA [E4/9-B2] (Eterna round: R97, puzzle: Exclusion 4)”: the “apparent KD of MS2 coat protein” value (input ligand: FMN 200 uM) came to 148 nM and the “apparent KD of MS2 coat protein” value (input ligand: none) is 574 nM.

(Values after the supplement of paper PMC9170038.)
